29 molecules from patent US20160159862A1 (PROTAGONIST THERAPEUTICS, published 2016) can be followed below.

Numbered stars: 1 amine (or outer) side, 2 acyl side, 3 side chain; on linkers, the order of the positions; unused ones are H or OH. Bridge positions count the residues as written; N and C are the ends. Square brackets hold non-standard residues; d marks the D form. Ends that are not written are not given here. Phe(4-OMe) = COc1ccc(C[C@H](N[*:1])C(=O)[*:2])cc1; Phe(4-COOH) = N[C@@H](Cc1ccc(C(=O)O)cc1)C(=O)O; Phe(4-tBu) = CC(C)(C)c1ccc(C[C@H](N)C(=O)O)cc1; Phe(2-CONH2) = NC(=O)c1ccccc1C[C@H](N)C(=O)O; Bip = N[C@@H](Cc1ccc(-c2ccccc2)cc1)C(=O)O; Phe(4-F) = N[C@@H](Cc1ccc(F)cc1)C(=O)O; 1Nal = N[C@@H](Cc1cccc2ccccc12)C(=O)O; 2Nal = N[C@@H](Cc1ccc2ccccc2c1)C(=O)O; d1Nal = N[C@H](Cc1cccc2ccccc12)C(=O)O; d2Nal = N[C@H](Cc1ccc2ccccc2c1)C(=O)O; NMeR = CN[C@@H](CCCNC(=N)N)C(=O)O; hPhe = N[C@@H](CCc1ccccc1)C(=O)O; Tic = O=C(O)[C@@H]1Cc2ccccc2CN1; Aic = NC1(C(=O)O)Cc2ccccc2C1; NMeK = CN[C@@H](CCCCN)C(=O)O; Pen = CC(C)(S)[C@H](N)C(=O)O; dNMeK = CN[C@H](CCCCN)C(=O)O

B1: SEQ ID NO 143 (peptide)
peptide: [Pen][NMeR]SDTL[Pen][2Nal]E
modifications: disulfide 1-7 (inferred); not fully specified (bridges); printed as Cyclo-[Pen-(N-Me-R)-S-D-T-L-Pen-(2-Nal)-E], disulfide
B2: SEQ ID NO 88 (peptide)
peptide: Ac-[Pen][NMeR]SDTL[Pen][2Nal][dK]-NH2
modifications: disulfide 1-7
SMILES: CC(=O)N[C@@H]1C(=O)N(C)[C@@H](CCCNC(=N)N)C(=O)N[C@@H](CO)C(=O)N[C@@H](CC(=O)O)C(=O)N[C@@H]([C@@H](C)O)C(=O)N[C@@H](CC(C)C)C(=O)N[C@H](C(=O)N[C@@H](Cc2ccc3ccccc3c2)C(=O)N[C@H](CCCCN)C(N)=O)C(C)(C)SSC1(C)C
B3: SEQ ID NO 12 (peptide)
peptide: Ac-[Pen][NMeR]SDTL[Pen][1Nal][dE][dNMeK]-NH2
modifications: disulfide 1-7
SMILES: CC(=O)N[C@@H]1C(=O)N(C)[C@@H](CCCNC(=N)N)C(=O)N[C@@H](CO)C(=O)N[C@@H](CC(=O)O)C(=O)N[C@@H]([C@@H](C)O)C(=O)N[C@@H](CC(C)C)C(=O)N[C@H](C(=O)N[C@@H](Cc2cccc3ccccc23)C(=O)N[C@H](CCC(=O)O)C(=O)N(C)[C@H](CCCCN)C(N)=O)C(C)(C)SSC1(C)C
B4: SEQ ID NO 8 (peptide)
peptide: Ac-[Pen][NMeR]SDTL[Pen][1Nal][dE][dK]-NH2
modifications: disulfide 1-7 (inferred)
B5: SEQ ID NO 51 (peptide)
peptide: Ac-[Pen][NMeR]SDTL[Pen]W[Aic][dK]-NH2
modifications: disulfide 1-7
SMILES: CC(=O)N[C@@H]1C(=O)N(C)[C@@H](CCCNC(=N)N)C(=O)N[C@@H](CO)C(=O)N[C@@H](CC(=O)O)C(=O)N[C@@H]([C@@H](C)O)C(=O)N[C@@H](CC(C)C)C(=O)N[C@H](C(=O)N[C@@H](Cc2c[nH]c3ccccc23)C(=O)NC2(C(=O)N[C@H](CCCCN)C(N)=O)Cc3ccccc3C2)C(C)(C)SSC1(C)C
B6: SEQ ID NO 10 (peptide)
peptide: Ac-[Pen][NMeR]SDTL[Pen][d1Nal]E[dK]-NH2
modifications: disulfide 1-7
SMILES: CC(=O)N[C@@H]1C(=O)N(C)[C@@H](CCCNC(=N)N)C(=O)N[C@@H](CO)C(=O)N[C@@H](CC(=O)O)C(=O)N[C@@H]([C@@H](C)O)C(=O)N[C@@H](CC(C)C)C(=O)N[C@H](C(=O)N[C@H](Cc2cccc3ccccc23)C(=O)N[C@@H](CCC(=O)O)C(=O)N[C@H](CCCCN)C(N)=O)C(C)(C)SSC1(C)C
B7: SEQ ID NO 11 (peptide)
peptide: Ac-[Pen][NMeR]SDTL[Pen][d2Nal]E[dK]-NH2
modifications: disulfide 1-7
SMILES: CC(=O)N[C@@H]1C(=O)N(C)[C@@H](CCCNC(=N)N)C(=O)N[C@@H](CO)C(=O)N[C@@H](CC(=O)O)C(=O)N[C@@H]([C@@H](C)O)C(=O)N[C@@H](CC(C)C)C(=O)N[C@H](C(=O)N[C@H](Cc2ccc3ccccc3c2)C(=O)N[C@@H](CCC(=O)O)C(=O)N[C@H](CCCCN)C(N)=O)C(C)(C)SSC1(C)C
B8: SEQ ID NO 50 (peptide)
peptide: Ac-[Pen][NMeR]SDTL[Pen][2Nal][hPhe][dK]-NH2
modifications: disulfide 1-7
SMILES: CC(=O)N[C@@H]1C(=O)N(C)[C@@H](CCCNC(=N)N)C(=O)N[C@@H](CO)C(=O)N[C@@H](CC(=O)O)C(=O)N[C@@H]([C@@H](C)O)C(=O)N[C@@H](CC(C)C)C(=O)N[C@H](C(=O)N[C@@H](Cc2ccc3ccccc3c2)C(=O)N[C@@H](CCc2ccccc2)C(=O)N[C@H](CCCCN)C(N)=O)C(C)(C)SSC1(C)C
B9: SEQ ID NO 29 (peptide)
peptide: Ac-[Pen][NMeR]SDTL[Pen][2Nal][dE][dK]-NH2
modifications: disulfide 1-7 (inferred); also: homodimer via DIG linker
B10: SEQ ID NO 15 (peptide)
peptide: Ac-[Pen][NMeR]SDTL[Pen][2Nal]E[dNMeK]-NH2
modifications: disulfide 1-7
SMILES: CC(=O)N[C@@H]1C(=O)N(C)[C@@H](CCCNC(=N)N)C(=O)N[C@@H](CO)C(=O)N[C@@H](CC(=O)O)C(=O)N[C@@H]([C@@H](C)O)C(=O)N[C@@H](CC(C)C)C(=O)N[C@H](C(=O)N[C@@H](Cc2ccc3ccccc3c2)C(=O)N[C@@H](CCC(=O)O)C(=O)N(C)[C@H](CCCCN)C(N)=O)C(C)(C)SSC1(C)C
B11: SEQ ID NO 9 (peptide)
peptide: Ac-[Pen][NMeR]SDTL[Pen][2Nal][dE][dK]-NH2
modifications: disulfide 1-7 (inferred)
B12: SEQ ID NO 138 (peptide)
peptide: Ac-[Pen][NMeR]SDTL[Pen][2Nal]E[NMeK]-NH2
modifications: disulfide 1-7 (inferred); also: homodimer via DIG
B13: SEQ ID NO 104 (peptide)
peptide: Ac-[Pen][NMeR]SDTL[Pen]W[dH][dK]-NH2
modifications: disulfide 1-7 (inferred); also: dimer via DIG
B14: SEQ ID NO 105 (peptide)
peptide: Ac-[Pen][NMeR]SDTL[Pen]W[Phe(4-COOH)][dK]-NH2
modifications: disulfide 1-7 (inferred); also: dimer via DIG
B15: SEQ ID NO 111 (peptide)
peptide: Ac-[Pen][NMeR]SDTL[Pen][1Nal][dF][dK]-NH2
modifications: disulfide 1-7 (inferred); also: dimer via DIG
B16: SEQ ID NO 109 (peptide)
peptide: Ac-[Pen][NMeR]SDTL[Pen]W[Tic][dK]-NH2
modifications: disulfide 1-7 (inferred); also: dimer via DIG
B17: SEQ ID NO 110 (peptide)
peptide: Ac-[Pen][NMeR]SDTL[Pen]W[dW][dK]-NH2
modifications: disulfide 1-7 (inferred); also: dimer via DIG
B18: SEQ ID NO 112 (peptide)
peptide: Ac-[Pen][NMeR]SDTL[Pen][1Nal][dH][dK]-NH2
modifications: disulfide 1-7 (inferred); also: homodimer via DIG
B19: SEQ ID NO 103 (peptide)
peptide: Ac-[Pen][NMeR]SDTL[Pen][Phe(4-OMe)][dE][dK]-NH2
modifications: disulfide 1-7 (inferred); also: dimer via DIG
B20: SEQ ID NO 100 (peptide)
peptide: Ac-[Pen][NMeR]SDTL[Pen][Phe(4-COOH)][dE][dK]-NH2
modifications: disulfide 1-7 (inferred); also: dimer via DIG
B21: SEQ ID NO 101 (peptide)
peptide: Ac-[Pen][NMeR]SDTL[Pen][Phe(2,4-Cl)][dE][dK]-NH2
modifications: disulfide 1-7 (inferred); also: dimer via DIG
B22: SEQ ID NO 98 (peptide)
peptide: Ac-[Pen][NMeR]SDTL[Pen][Phe(2-CONH2)][dE][dK]-NH2
modifications: disulfide 1-7 (inferred); also: homodimer linked by DIG
B23: SEQ ID NO 113 (peptide)
peptide: Ac-[Pen][NMeR]SDTL[Pen][1Nal][dL][dK]-NH2
modifications: disulfide 1-7 (inferred); also: homodimer via DIG
B24: SEQ ID NO 107 (peptide)
peptide: Ac-[Pen][NMeR]SDTL[Pen][Phe(4-F)][dE][dK]-NH2
modifications: disulfide 1-7 (inferred); also: dimer via DIG
B25: SEQ ID NO 99 (peptide)
peptide: Ac-[Pen][NMeR]SDTL[Pen][Phe(3-carbamoyl)][dE][dK]-NH2
modifications: disulfide 1-7 (inferred); also: homodimer linked by DIG
B26: SEQ ID NO 102 (peptide)
peptide: Ac-[Pen][NMeR]SDTL[Pen][Phe(3,4-Cl)][dE][dK]-NH2
modifications: disulfide 1-7 (inferred); also: dimer via DIG
B27: SEQ ID NO 108 (peptide)
peptide: Ac-[Pen][NMeR]SDTL[Pen][Bip][dE][dK]-NH2
modifications: disulfide 1-7 (inferred); also: dimer via DIG
B28: SEQ ID NO 106 (peptide)
peptide: Ac-[Pen][NMeR]SDTL[Pen][Phe(4-tBu)][dE][dK]-NH2
modifications: disulfide 1-7 (inferred); also: dimer via DIG
B29: SEQ ID NO 114 (peptide)
peptide: Ac-[Pen][NMeR]SDTL[Pen][1Nal][dR][dK]-NH2
modifications: disulfide 1-7 (inferred); also: homodimer via DIG

By IC50 is commonly meant the concentration needed to halve the response being measured. A high value points to lower potency.

The first experiment has as its target rh integrin α4β7 (R&D Systems #5397-A30) (human) (UniProt P13612). Kind of experiment: α4β7-MAdCAM competition ELISA. Background: In an ELISA, binding on a coated surface is turned into a signal by an enzyme label.
Molecule B1 returned an IC50 of 250 nM.
The same measure, in the same setting: to B2 belongs more than 10 nM.
On the same count and under the same terms, to B3 belongs more than 25 nM; to B4, more than 25 nM.
Molecule B5 came in with an IC50 of more than 25 nM.
B6 returned an IC50 of more than 10 nM.
The molecule B7 showed an IC50 of more than 25 nM.
As to B8, the IC50 was more than 10 nM.
The molecule B9 displayed an IC50 of less than 10 nM.
The molecule B10 yielded an IC50 of less than 10 nM.
The same measure, in the same setting: to B11 belongs more than 10 nM.
Same read-out and setting: as for B12, the figure is more than 10 nM.

In a further experiment the target is α4β7 integrin on human cells (human, UniProt P13612 34-1032; P26010 20-798). Kind of experiment: cell-based or functional assay.
Consider B13, for which the “α4β7 cell (Hu) IC50” value was more than 100 nM.
Same read-out and setting: to B14 belongs more than 50 nM; to B1, more than 10000 nM.
On the same count and under the same terms, as for B15, the figure is more than 100 nM; as for B16, more than 100 nM.
Same read-out and setting: as for B17, the figure is more than 10 nM; as for B18, more than 50 nM; as for B19, more than 25 nM.
Turning to B20, the “α4β7 cell (Hu) IC50” value is not above 10 nM.
Still for that read-out and setting: as for B21, the figure is more than 50 nM.
Still for that read-out and setting: to B22 belongs more than 50 nM.
On the same count and under the same terms, as for B23, the figure is more than 500 nM; as for B24, more than 25 nM; as for B25, more than 100 nM.
For B26, the “α4β7 cell (Hu) IC50” value is more than 100 nM.
In the case of B27, the “α4β7 cell (Hu) IC50” value is more than 10 nM.
Still for that read-out and setting: as for B9, the figure is more than 10 nM; as for B28, not above 10 nM.
The same measure, in the same setting: to B11 belongs more than 100 nM.
On the same count and under the same terms, as for B12, the figure is more than 10 nM; as for B29, more than 100 nM.
